Results as given in US11091546B2, “Optimized PNE-based chimeric receptor T cell switches and uses thereof” (The Scripps Research Institute, priority 2015, dated 2021).
Where “and” joins values, the source holds several entries; their conditions need not be identical. Equal values may be shown once.

Key:
[1] = system: Nalm-6^Luc/GFP cells; assay: Nalm-6 Luc/GFP leukemia xenograft; type: in vivo; conditions: IgG format
Method: NSG mice were inoculated with CD19^+ Nalm-6^GFP/Luc cells. Six days later, 40×10^6 sCAR-T cells were delivered IV and switch dosing commenced every other day at 0.5 mg/kg for 10 days. Tumor burden was followed by luminescence after injection of luciferin and imaged on an in vivo imaging system (IVIS; PerkinElmer, Waltham, Mass., USA).
Asterisks indicate significance from LCNT Fab group. Data are represented as means±SEM, and statistical significance was calculated using the 2-way ANOVA with Bonferroni's post-test (B & E; shown for final time-point only) or by one-tailed student's t-test (C & F) where *=p<0.05, **=p<0.01 and ***=p<0.001.
NSG mice were inoculated with Nalm-6^GFP/Luc as described in FIG. 28. […] A fourth group consisted of two cohorts (n=3) of mice injected I.V. with sCAR-T cells without (−) LCNT Fab switch. LCNT Fab dosing in the indicated group was carried out daily at 0.5 mg/kg after the initial T cell infusion. Luminescence was measured at 6 h and subsequently every 24 h as indicated. Cohorts were sacrificed for analysis immediately following IVIS imaging. […] Gray lines indicate tumor burden in PBS and sCAR-T cell—LCNT Fab controls. […] Data are represented as means±SEM, and statistical significance was calculated using the one-tailed student's t-test (C & D) where *=p<0.05, **=p<0.01 and ***=p<0.001.
NSG mice were inoculated with Nalm6^GFP/Luc and six days later engrafted with short-dimeric sCAR-T cells as described in FIG. 29. […] Dosing was carried out for 15 d starting at day 6 (corresponding with sCAR-T cell infusion) as indicated by gray shading. Control groups CART-19 and PBS received no switch. The NS group received sCAR-T cells but no switch. Open circles denote the death of individual mice without evidence of tumor burden and may reflect GVHD. Triangles in PBS, NS and q.a.d. group indicate death due to increasing tumor burden. […] (19) indicates CART-19. […] (19) indicates CART-19. […] Triangles indicate the death of individual mice with significant tumor burden. The single mouse death in the 0.05 mg/kg group occurred while tumor burden was decreasing. […] Statistical significance was calculated using the one-tailed student's t-test (B, C & E) where *=p<0.05, **=p<0.01 and ***=p<0.001.
The different sCAR designs were tested in a xenograft model harboring luciferized NALM-6 (CD19+, CD80−, CD86−) cells. 1 mg/kg monovalent switch “A” was administered along with sCAR cells. […] Optimized hinge improved response. Short hinge CARs have faster clearance. Short, dimeric hinge CARs have improved persistence. Tumor burden was visualized with IVIS imaging. Experiments are repeated with a humanized scFv and bivalent switches.
Activity of the switchable CAR-T cell platform in vivo was evaluated via tumor regression in a Nalm-6^Luc/GFP leukemia xenograft model in immunodeficient NOD scid gamma (NSG) mice. These mice without treatment succumb to disease within 21 days. The impact of CAR hinge design on in vivo efficacy was determined using mice inoculated with Nalm-6^Luc/GFP, followed by I.V. injection of long, short, or short-dimeric sCAR-T cells 6 days later. The LCNT Fab was dosed I.V. (0.5 mg/kg) every other day for 10 days and tumor regression was followed by in vivo imaging (IVIS) of the luciferase signal from Nalm-6^Luc/GFP cells (FIG. 29A).
The effect of switch grafting position on the control of tumor burden was determined. As with the previous model, short-dimeric CAR-T cells were injected 6 days after tumor inoculation and mice were treated every other day (starting at day 6) with 0.5 mg/kg LCNT, HCNT, NTBV, LCC1, or HCCT Fab switches (FIG. 29D).
To determine the proliferation and localization of sCAR-T cell cytotoxicity during this time interval, mice were sorted into 5 cohorts per treatment regimen and analyzed at 8, 24, 48, 72, and 96 h after treatment with short-dimeric sCAR-T cells+LCNT Fab switch or with conventional CART-19 and no switch. […]

[2] = system: MOLM14 cell line; assay: Cytokines in cytotoxicity assay supernatant (CBA Human Th1/Th2 II Kit); type: cell-based; design: unit not given here; conditions: duplicates
Excerpt: (§1) FIG. 38A illustrates multiple fusion/grafting locations: A=LCNT1 (light chain N terminus version 1), B=HCNT3 (heavy chain N terminus version 3), C=heavy chain C terminus, and D=light chain C terminus). […] Data shown are an average of duplicate samples, and error bars represent SD. Only the NT switches plus the BvCT and By CH1CL1 as references are depicted.
(§2) Monovalent and bivalent combinations of these switches were expressed and tested in cytotoxicity assays at a dose titration within the range of 0.4 nM to 0.0001 nM. […] Data shown are an average of duplicate samples, and error bars represent SD. Only the NT switches plus the BvCT and By CH1CL1 as references are depicted. cytokine secretion was measured.

[3] = system: CD33+ MOLM14 cells; assay: Cytotoxicity assay, sCAR-T cells + anti-CD33 (hP67.6) switches; type: cell-based; design: unit not given here; conditions: duplicates
Excerpt: as §1, §2

[4] = system: CD123+ MOLM14 cells; assay: Flow cytometry based cytotoxicity assay, sCAR-T cells + anti-CD123 Fab switches; type: cell-based; conditions: duplicates
Method: as §1
The flow cytometry based cytotoxicity assay were performed in RPMI-1640 media supplemented with 5% heat inactivated FBS, 1% Pen/Strep, 1% glutamine, and 1% Sodium pyruvate. Target cells (2×10^4 cells) were pre-labeled with CellVue Claret Far Red Fluorescent Cell linker (Sigma-Aldrich) and co-cultured with 1×10^5 sCAR-T cells. Variable concentration of switch was added to assess in vitro activity. This assay was conducted in a volume of 100 ul in 96-well U bottom plate for 24 hours, after which the cells were stained with 7-AAD viability dye (1:100; BD Biosciences) in FACs staining buffer (PBS with 2 mM EDTA and 1% FCS) and acquired on BD Accuri C6 flow cytometer. The viability was calculated as following formula: […]=[(no switch viable target cells-experimental viable target cells)/no switch viable target cells]*100
Activity was confirmed by flow cytometry based cytotoxicity assay (FIG. 38J & FIG. 38K). FIG. 38J and Table 31. […] FIG. 38K and Table 32.

## anti-CD19 IgG LCNT: FMC63 anti-CD19 IgG, peptide on N-terminus of light chain (SEQ ID 36 & 28)
[1]; 0.5 mg/kg every 5 days for 15 days (3 doses)
  tumor burden (IVIS): unable to significantly control tumor burden
[1]; 1 mg/kg every day for 10 d
  tumor growth: unable to control tumor growth

## hP67.6 LCNT: anti-CD33 hP67.6 Fab, GCN4 on light chain N-terminus, GGGGS linker (SEQ ID 217 & 232)
[2]
  IFNg in supernatant (FIG. 38H): 448.47 and 374.76
  Il-2 in supernatant (FIG. 38H): 328.62 and 234
  TNFa in supernatant (FIG. 38H): 53.4 and 44.84
[3]; switch 0.1 pM
  cytotoxicity (FIG. 38G): 0
[3]; switch 0.64 pM
  cytotoxicity (FIG. 38G): 5.9 and 4.6
[3]; switch 3.2 pM
  cytotoxicity (FIG. 38G): 36.9 and 35.9
[3]; switch 16 pM
  cytotoxicity (FIG. 38G): 58.7 and 59.2
[3]; switch 80 pM
  cytotoxicity (FIG. 38G): 66 and 66.5
[3]; switch 400 pM
  cytotoxicity (FIG. 38G): 59.5 and 60.9

## hP67.6 NTBV: anti-CD33 hP67.6 Fab, N-terminal bivalent (SEQ ID 217 & 220)
[2]
  IFNg in supernatant (FIG. 38H): 957.81 and 958.26
  Il-2 in supernatant (FIG. 38H): 936.57 and 898.28
  TNFa in supernatant (FIG. 38H): 98.48 and 97.95
[3]; switch 0.1 pM
  cytotoxicity (FIG. 38G): 0
[3]; switch 0.64 pM
  cytotoxicity (FIG. 38G): 0.9 and 0.8
[3]; switch 3.2 pM
  cytotoxicity (FIG. 38G): 23.6 and 28.4
[3]; switch 16 pM
  cytotoxicity (FIG. 38G): 55.4 and 57.1
[3]; switch 80 pM
  cytotoxicity (FIG. 38G): 69.7 and 69.2
[3]; switch 400 pM
  cytotoxicity (FIG. 38G): 69.3 and 69.5

B1: 26292 NTBv: anti-CD123 clone 26292 Fab, N-terminal bivalent (protein)
light: NYHLENEVARLKKLGGGGSDVQITQSPSYLAASPGETITINCRASKSISKDLAWYQEKPGKTNKLLIYSGSTLQSGIPSRFSGSGSGTDFTLTISSLEPEDFAMYYCQQHNKYPYTFGGGTKLEIRTVAAPSVFIFPPSDEQLKSGTASVVCLLNNFYPREAKVQWKVDNALQSGNSQESVTEQDSKDSTYSLSSTLTLSKADYEKHKVYACEVTHQGLSSPVTKSFNRGEC
heavy: NYHLENEVARLKKLLVGEAAAKEAAAKAQVQLQQPGAELVRPGASVKLSCKASGYTFTSYWMNWVKQRPDQGLEWIGRIDPYDSETHYNQKFKDKAILTVDKSSSTAYMQLSSLTSEDSAVYYCARGNWDDYWGQGTTLTVSSARTKGPSVFPLAPSSKSTSGGTAALGCLVKDYFPEPVTVSWNSGALTSGVHTFPAVLQSSGLYSLSSVVTVPSSSLGTQTYICNVNHKPSNTKVDKKVEPKSC
[4]; FIG. 38J, clone 26292, switch 0.01 pM
  Percent of cytotoxicity in target cells: 0%
[4]; FIG. 38J, clone 26292, switch 0.128 pM
  Percent of cytotoxicity in target cells: 2% and 3.4%
[4]; FIG. 38J, clone 26292, switch 0.64 pM
  Percent of cytotoxicity in target cells: 7.4% and 6.4%
[4]; FIG. 38J, clone 26292, switch 3.2 pM
  Percent of cytotoxicity in target cells: 9.8% and 4.1%
[4]; FIG. 38J, clone 26292, switch 16 pM
  Percent of cytotoxicity in target cells: 16.5% and 19.3%
[4]; FIG. 38J, clone 26292, switch 80 pM
  Percent of cytotoxicity in target cells: 31.4% and 33.2%
[4]; FIG. 38J, clone 26292, switch 400 pM
  Percent of cytotoxicity in target cells: 57.5% and 55.5%
[4]; FIG. 38J, clone 26292, switch 2000 pM
  Percent of cytotoxicity in target cells: 64.2% and 62.1%
[4]; FIG. 38J, clone 26292, switch 10000 pM
  Percent of cytotoxicity in target cells: 55.3% and 57.4%

B2: 32716 NTBv: anti-CD123 clone 32716 Fab, N-terminal bivalent (protein)
light: NYHLENEVARLKKLGGGGSDIVLTQSPASLAVSLGQRATISCRASESVDNYGNTFMHWYQQKPGQPPKLLIYRASNLESGIPARFSGSGSRTDFTLTINPVEADDVATYYCQQSNEDPPTFGAGTKLELRTVAAPSVFIFPPSDEQLKSGTASVVCLLNNFYPREAKVQWKVDNALQSGNSQESVTEQDSKDSTYSLSSTLTLSKADYEKHKVYACEVTHQGLSSPVTKSFNRGEC
heavy: NYHLENEVARLKKLLVGEAAAKEAAAKAQIQLVQSGPELKKPGETVKISCKASGYIFTNYGMNWVKQAPGKSFKWMGWINTYTGESTYSADFKGRFAFSLETSASTAYLHINDLKNEDTATYFCARSGGYDPMDYWGQGTSVTVSSARTKGPSVFPLAPSSKSTSGGTAALGCLVKDYFPEPVTVSWNSGALTSGVHTFPAVLQSSGLYSLSSVVTVPSSSLGTQTYICNVNHKPSNTKVDKKVEPKSC
[4]; FIG. 38K, clone 32716, switch 0.01 pM
  Percent of cytotoxicity in target cells: 0%
[4]; FIG. 38K, clone 32716, switch 0.128 pM
  Percent of cytotoxicity in target cells: 2.2% and 3.1%
[4]; FIG. 38K, clone 32716, switch 0.64 pM
  Percent of cytotoxicity in target cells: 1.6% and −6.4%
[4]; FIG. 38K, clone 32716, switch 3.2 pM
  Percent of cytotoxicity in target cells: 6.4% and 0.2%
[4]; FIG. 38K, clone 32716, switch 16 pM
  Percent of cytotoxicity in target cells: 13.7% and 12.6%
[4]; FIG. 38K, clone 32716, switch 80 pM
  Percent of cytotoxicity in target cells: 27% and 28.5%
[4]; FIG. 38K, clone 32716, switch 400 pM
  Percent of cytotoxicity in target cells: 50.9% and 44.5%
[4]; FIG. 38K, clone 32716, switch 2000 pM
  Percent of cytotoxicity in target cells: 60.9% and 55.7%
[4]; FIG. 38K, clone 32716, switch 10000 pM
  Percent of cytotoxicity in target cells: 58.3% and 51%
